Twelve molecules from US20110118181A1 (INSTITUT DE RECHERHES CLINIQUES DE MONTREAL, published 2011) can be followed below.

Several values for one entry are separate records, joined by “and”; a condition that tells them apart may be missing. Equal values may be shown once.

B4: AnxA2 ΔR1-HA (deletion of aa 37-108) (other)
chain: MSTVHEILCKLSLEGDHSTPPSAYGSVKAYTNFDAEYDASELKASMKGLGTDEDSLIEIICSRTNQELQEINRVYKEMYKTDLEKDIISDTSGDFRKLMVALAKGRRAEDGSVIDYELIDQDARDLYDAGVKRKGTDVPKWISIMTERSVPHLQKVFDRYKSYSPYDMLESIRKEVKGDLENAFLNLVQCIQNKPLYFADRLYDSMKGKGTRDKVLIRIMVSRSEVDMLKIRSEFKRKYGKSLYYYIQQDTKGDYQKALLYLCGGDDYPYDVPDYA
notes: also called Δ37-108 (R1)

Assay [1] addresses T1, PCSK9-V5 (full-length human PCSK9 with C-terminal V5 tag) (human, UniProt Q8NBP7 31-692).
T1 construct: Used as conditioned medium of CHO-K1 cells (Far Western, pull-down) or co-expressed in cells (co-IP); The background says PCSK9 is secreted as a prosegment-PCSK9 heterodimer; also called full-length (FL) PCSK9-V5; native PCSK9; not shown: C-terminal V5 tag
The experiment in a line: Far Western blot of HEK293 lysates.

Assay [2] deals with T1, PCSK9-V5 (full-length human PCSK9 with …). The experiment in a line: Far Western blot of lysates of CHO cells overexpressing AnxA1. As for the experimental part: Lysates (20 to 30 μg protein), media or purified AnxA2-(His)₆ were heated in reducing or non-reducing Laemmli sample buffer, resolved by SDS-PAGE on 8% glycine gels and electro-transferred onto nitrocellulose membranes (GE Healthcare). Following 1 h incubation in 5% skim milk in Tris-Buffered Saline-0.1% Tween (TBST), membranes where incubated with conditioned media of CHO-K1 cells overexpressing either an empty vector (pIRES-V5), PC5A-V5, CHRD-V5, pIRES-D374Y, PCSK9-V5 or its V5-tagged mutants, or incubated with purified AnxA2-(His)₆ for 3 h at room temperature. […] For competition experiments, 10 μg of His-tagged PCSK9 or CHRD were added to the PCSK9-V5 media before Far Western blotting. For PCSK9 binding requirements with the ˜33 kDa protein, 1M NaCl, 10 mg/ml heparin, 1M NaCl+10 mg/ml heparin, or 100 mM EDTA were added to the PCSK9-V5 conditioned media used for Far Western blotting.

Assay [3] deals with T2, purified biotin-conjugated PCSK9 (UniProt Q8NBP7 31-692, limits assumed, biotin-conjugated (site not stated)).
T2 construct: Coated on streptavidin donor beads; also called PCSK9 (AlphaScreen donor beads)
As to the kind of experiment: AlphaScreen competition of biotin-PCSK9 binding to His6-LDLR ectodomain. On the procedure: AlphaScreen® (Perkin Elmer) streptavidin donor beads were coated with purified biotin-conjugated PCSK9 and AlphaScreen® nickel chelate acceptor beads were coated with purified His6-conjugated LDLR ectodomain. Competition in the AlphaScreen® PCSK9-LDLR interaction assay was measured, in the presence of increasing concentrations of AnxA2-derived peptides, as a reduction of fluorescence.
On the technique in general: Bead proximity is the source of the signal in Alpha formats.

Assay [4] concerns the target B4. The experiment in a line: Far Western blot of HEK293 lysates.
For assay [5], the target named is T3, ˜33 kDa protein of COS-1 cells, identified as monkey Annexin A2 (AnxA2; XP-001155637) (monkey).
T3 construct: Denatured on nitrocellulose in Far Western blots; native in co-IP; The ˜33 kDa band was also seen in BSC40 and HuH7 lysates; also called endogenous Annexin A2
As to the kind of experiment: Far Western blot of COS-1 lysates. As for the experimental part:
All of these were detected by the HRP-tagged V5 mAb. (B) The COS-1 cells soluble fraction (supernatant S3; 3 μg protein) was analyzed by Far Western blot and compared to 30 μg protein loads from other subcellular fractions. […] (D) For competition experiments, purified PCSK9-His or CHRD-His were added to the PCSK9-V5 conditioned media used for Far Western blotting. (E) PCSK9-V5-binding requirements were tested by adding 1M NaCl, 10 mg/ml heparin, 1M NaCl+10 mg/ml heparin, or 100 mM EDTA to the PCSK9-V5 conditioned media used for Far Western blotting. Heavy arrows point to the migration position of the ˜33 kDa protein, and the light arrow to that of the ˜45 kDa protein. (−) denotes a control lane where nothing was added to the Far Western blotting media;
Lysates (20 to 30 μg protein), media or purified AnxA2-(His)₆ were heated in reducing or non-reducing Laemmli sample buffer, resolved by SDS-PAGE on 8% glycine gels and electro-transferred onto nitrocellulose membranes (GE Healthcare). Following 1 h incubation in 5% skim milk in Tris-Buffered Saline-0.1% Tween (TBST), membranes where incubated with conditioned media of CHO-K1 cells overexpressing either an empty vector (pIRES-V5), PC5A-V5, CHRD-V5, pIRES-D374Y, PCSK9-V5 or its V5-tagged mutants, or incubated with purified AnxA2-(His)₆ for 3 h at room temperature. […]

T3 sequence (P07355 2-339): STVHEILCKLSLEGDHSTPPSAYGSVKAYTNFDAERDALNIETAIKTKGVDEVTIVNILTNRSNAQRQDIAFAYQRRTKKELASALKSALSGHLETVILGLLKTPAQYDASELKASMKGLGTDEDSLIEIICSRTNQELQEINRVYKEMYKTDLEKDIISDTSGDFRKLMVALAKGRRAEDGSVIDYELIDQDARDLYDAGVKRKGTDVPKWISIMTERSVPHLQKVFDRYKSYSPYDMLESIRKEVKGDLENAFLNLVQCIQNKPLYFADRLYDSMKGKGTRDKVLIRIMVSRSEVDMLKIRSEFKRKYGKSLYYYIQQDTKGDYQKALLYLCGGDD

B1: AnxA2 Δ62-75-HA (other)
chain: MSTVHEILCKLSLEGDHSTPPSAYGSVKAYTNFDAERDALNIETAIKTKGVDEVTIVNILTQRRTKKELASALKSALSGHLETVILGLLKTPAQYDASELKASMKGLGTDEDSLIEIICSRTNQELQEINRVYKEMYKTDLEKDIISDTSGDFRKLMVALAKGRRAEDGSVIDYELIDQDARDLYDAGVKRKGTDVPKWISIMTERSVPHLQKVFDRYKSYSPYDMLESIRKEVKGDLENAFLNLVQCIQNKPLYFADRLYDSMKGKGTRDKVLIRIMVSRSEVDMLKIRSEFKRKYGKSLYYYIQQDTKGDYQKALLYLCGGDDYPYDVPDYA
For the molecule B1, the binding result in assay [1] is “no binding”.

B2: AnxA2 ΔR2-HA (deletion of aa 109-192) (other)
chain: MSTVHEILCKLSLEGDHSTPPSAYGSVKAYTNFDAERDALNIETAIKTKGVDEVTIVNILTNRSNAQRQDIAFAYQRRTKKELASALKSALSGHLETVILGLLKTPAQQDARDLYDAGVKRKGTDVPKWISIMTERSVPHLQKVFDRYKSYSPYDMLESIRKEVKGDLENAFLNLVQCIQNKPLYFADRLYDSMKGKGTRDKVLIRIMVSRSEVDMLKIRSEFKRKYGKSLYYYIQQDTKGDYQKALLYLCGGDDYPYDVPDYA
notes: also called Δ109-192 (R2)
For B2, the binding result in assay [1] is “binds”.

B3: AnxA2 Δ102-108-HA (other)
chain: MSTVHEILCKLSLEGDHSTPPSAYGSVKAYTNFDAERDALNIETAIKTKGVDEVTIVNILTNRSNAQRQDIAFAYQRRTKKELASALKSALSGHLETVILGYDASELKASMKGLGTDEDSLIEIICSRTNQELQEINRVYKEMYKTDLEKDIISDTSGDFRKLMVALAKGRRAEDGSVIDYELIDQDARDLYDAGVKRKGTDVPKWISIMTERSVPHLQKVFDRYKSYSPYDMLESIRKEVKGDLENAFLNLVQCIQNKPLYFADRLYDSMKGKGTRDKVLIRIMVSRSEVDMLKIRSEFKRKYGKSLYYYIQQDTKGDYQKALLYLCGGDDYPYDVPDYA
As to B3, the binding result in assay [1] is reported as “no binding”. For B4, in assay [1], the binding result is “no binding”.

B5: human Annexin A1 (AnxA1), untagged (other, UniProt P04083 2-346, looked up)
chain: AMVSEFLKQAWFIENEEQEYVQTVKSSKGGPGSAVSPYPTFNPSSDVAALHKAIMVKGVDEATIIDILTKRNNAQRQQIKAAYLQETGKPLDETLKKALTGHLEEVVLALLKTPAQFDADELRAAMKGLGTDEDTLIEILASRTNKEIRDINRVYREELKRDLAKDITSDTSGDFRNALLSLAKGDRSEDFGVNEDLADSDARALYEAGERRKGTDVNVFNTILTTRSYPQLRRVFQKYTKYSKHDMNKVLDLELKGDIEKCLTAIVKCATSKPAFFAEKLHQAMKGVGTRHKALIRIMVSRSEIDMNDIKAFYQKMYGISLCQAILDETKGDYEKILVALCGGN
notes: Overexpressed in CHO cells as control
In the case of B5, in assay [2], the binding result was “no binding”.

B6: AnxA2 Δ74-88-HA (other)
chain: MSTVHEILCKLSLEGDHSTPPSAYGSVKAYTNFDAERDALNIETAIKTKGVDEVTIVNILTNRSNAQRQDIAFSALSGHLETVILGLLKTPAQYDASELKASMKGLGTDEDSLIEIICSRTNQELQEINRVYKEMYKTDLEKDIISDTSGDFRKLMVALAKGRRAEDGSVIDYELIDQDARDLYDAGVKRKGTDVPKWISIMTERSVPHLQKVFDRYKSYSPYDMLESIRKEVKGDLENAFLNLVQCIQNKPLYFADRLYDSMKGKGTRDKVLIRIMVSRSEVDMLKIRSEFKRKYGKSLYYYIQQDTKGDYQKALLYLCGGDDYPYDVPDYA
As to B6, the binding result in assay [1] was “no binding”.

B7: AnxA2 ΔR4-HA (deletion of aa 269-339) (other)
chain: MSTVHEILCKLSLEGDHSTPPSAYGSVKAYTNFDAERDALNIETAIKTKGVDEVTIVNILTNRSNAQRQDIAFAYQRRTKKELASALKSALSGHLETVILGLLKTPAQYDASELKASMKGLGTDEDSLIEIICSRTNQELQEINRVYKEMYKTDLEKDIISDTSGDFRKLMVALAKGRRAEDGSVIDYELIDQDARDLYDAGVKRKGTDVPKWISIMTERSVPHLQKVFDRYKSYSPYDMLESIRKEVKGDLENAFLNLVQCIQNKPLYPYDVPDYA
notes: also called Δ269-339 (R4)
Turning to B7, in assay [1], the binding result is on record as “binds”.

B8: AnxA2 Δ82-88-HA (other)
chain: MSTVHEILCKLSLEGDHSTPPSAYGSVKAYTNFDAERDALNIETAIKTKGVDEVTIVNILTNRSNAQRQDIAFAYQRRTKKSALSGHLETVILGLLKTPAQYDASELKASMKGLGTDEDSLIEIICSRTNQELQEINRVYKEMYKTDLEKDIISDTSGDFRKLMVALAKGRRAEDGSVIDYELIDQDARDLYDAGVKRKGTDVPKWISIMTERSVPHLQKVFDRYKSYSPYDMLESIRKEVKGDLENAFLNLVQCIQNKPLYFADRLYDSMKGKGTRDKVLIRIMVSRSEVDMLKIRSEFKRKYGKSLYYYIQQDTKGDYQKALLYLCGGDDYPYDVPDYA
Regarding B8, in assay [1], the binding result is given as “no binding”.

B9: AnxA2 ΔR3-HA (deletion of aa 193-268) (other)
chain: MSTVHEILCKLSLEGDHSTPPSAYGSVKAYTNFDAERDALNIETAIKTKGVDEVTIVNILTNRSNAQRQDIAFAYQRRTKKELASALKSALSGHLETVILGLLKTPAQYDASELKASMKGLGTDEDSLIEIICSRTNQELQEINRVYKEMYKTDLEKDIISDTSGDFRKLMVALAKGRRAEDGSVIDYELIDYFADRLYDSMKGKGTRDKVLIRIMVSRSEVDMLKIRSEFKRKYGKSLYYYIQQDTKGDYQKALLYLCGGDDYPYDVPDYA
notes: also called Δ193-268 (R3)
As for B9, in assay [1], the binding result is “binds”.

B10: AnxA2 Δ89-101-HA (other)
chain: MSTVHEILCKLSLEGDHSTPPSAYGSVKAYTNFDAERDALNIETAIKTKGVDEVTIVNILTNRSNAQRQDIAFAYQRRTKKELASALKLLKTPAQYDASELKASMKGLGTDEDSLIEIICSRTNQELQEINRVYKEMYKTDLEKDIISDTSGDFRKLMVALAKGRRAEDGSVIDYELIDQDARDLYDAGVKRKGTDVPKWISIMTERSVPHLQKVFDRYKSYSPYDMLESIRKEVKGDLENAFLNLVQCIQNKPLYFADRLYDSMKGKGTRDKVLIRIMVSRSEVDMLKIRSEFKRKYGKSLYYYIQQDTKGDYQKALLYLCGGDDYPYDVPDYA
Take B10: in assay [1], the binding result is on record as “no binding”.

B11: peptide No 896970 (73-mer AnxA2 R1 peptide extending from amino acids 25 to 97) (peptide)
peptide: GSVKAYTNFDAERDALNIETAIKTKGVDEVTIVNILTNRSNAQRQDIAFAYQRRTKKELASALKSALSGHLET
notes: also called AnxA2 25-97 peptide
With B11, in assay [3], the IC50 was 500 nM to 1 µM (2×) and 750 nM.

B12: CHRD-V5 (C-terminal Cys-His-rich domain of PCSK9, V5-tagged) (other, human, UniProt Q8NBP7 455-692, looked up)
chain: LFCRTVWSAHSGPTRMATAVARCAPDEELLSCSSFSRSGKRRGERMEAQGGKLVCRAHNAFGGEGVYAIARCCLLPQANCSVHTAPPAEASMGTRVHCHQQGHVLTGCSSHWEVEDLGTHKPPVLRPRGQPNQCVGHREASIHASCCHAPGLECKVKEHGIPAPQEQVTVACEEGWTLTGCSALPGTSHVLGAYAVDNTCVVRSRDVSTTGSTSEGAVTAVAICCRSRHLAQASQELQ
notes: domain: CHRD; Conditioned medium of CHO-K1 cells; also called CHRD alone; not shown: C-terminal V5 tag
As to B12, the binding result in assay [4] is “no binding”. Further, in assay [5], the “fold binding against full length PCSK9” value was 3 fold.
